Measurements published in publication PMC6937582, “Human leukocyte antigen (HLA) class II peptide flanking residues tune the immunogenicity of a human tumor-derived epitope” (The Journal of Biological Chemistry, 2019).
Blank lines part the entries; values can stand above or below the binder they belong to.

Key:
[1] = target: HLA-DR1 (HLA-DRα*0101 and HLA-DRβ1*0101); assay: in vitro competition assay (HLA-DR1 peptide binding); conditions: chain shown with the change
[2] = target: HLA-DR1 (HLA-DRα*0101 and HLA-DRβ1*0101) (human); assay: ELISA; competitive peptide-binding assay: test peptide 10^-4-10^-10 M against 4.5 nM biotinylated CLIP 99-117 marker peptide for 0.1 μg refolded HLA-DR1-CLIP 105-117; 20 mM MES, 140 mM NaCl, 0.02% NaN3, pH 5, overnight at 37 °C; HLA-DR1 captured on anti-DR L243, bound marker detected with streptavidin-HRP; % competitive inhibition, four-parameter fit

B1: 5T4_(111–130) 20-mer peptide G11R (peptide)
chain: FARRPPLAELAALNLSRSRL
IC50 [1]: 255 nM

B3: 5T4_(111–130) 20-mer peptide (peptide)
peptide: FARRPPLAELAALNLSGSRL
IC50 [2]: 176 nM

The remaining binders from weak to strong by IC50 [1], led by results:

IC50 [1]: 725 nM
B2: 5T4_(111–130) 20-mer peptide L7A (peptide)
chain: FARRPPLAELAAANLSGSRL

IC50 [1]: 144 nM
B4: 5T4_(111–130) 20-mer peptide N8A (peptide)
chain: FARRPPLAELAALALSGSRL
